Assay results taken from the Immune Epitope Database (IEDB).

Columns and labels:
[1] = target: HLA-B*14:02; assay: IEDB peptide-MHC binding, purified MHC/direct/fluorescence; filed as Kd, often an IC50 or EC50 that approximates it; ≥ and ≤ were set here for values at or beyond the usual limits of such assays; conditions: source organism: Homo sapiens
[2] = target: HLA-A*02:01; assay: IEDB peptide-MHC binding, purified MHC/competitive/fluorescence; filed as Kd, often an IC50 or EC50 that approximates it; ≥ and ≤ were set here for values at or beyond the usual limits of such assays; conditions: source organism: Shigella boydii CDC 3083-94
[3] = target: HLA-A*03:19; assay: as above; conditions: source organism: Shigella boydii CDC 3083-94
[4] = target: HLA-B*18:01; assay: as above; conditions: source organism: Shigella boydii CDC 3083-94
[5] = target: HLA-A*32:07; assay: as above; conditions: source organism: Shigella boydii CDC 3083-94
[6] = target: HLA-B*51:01; assay: as above; conditions: source organism: Shigella boydii CDC 3083-94
[7] = target: HLA-B*45:06; assay: as above; conditions: source organism: Shigella boydii CDC 3083-94
[8] = target: HLA-B*15:42; assay: as above; conditions: source organism: Shigella boydii CDC 3083-94
[9] = target: HLA-C*14:02; assay: as above; conditions: source organism: Shigella boydii CDC 3083-94
[10] = target: HLA-B*57:01; assay: as above; conditions: source organism: Shigella boydii CDC 3083-94
[11] = target: HLA-B*27:20; assay: as above; conditions: source organism: Shigella boydii CDC 3083-94
[12] = target: HLA-B*27:03; assay: as above; conditions: source organism: Shigella boydii CDC 3083-94
[13] = target: HLA-A*32:15; assay: as above; conditions: source organism: Shigella boydii CDC 3083-94
[14] = target: HLA-A*02:19; assay: as above; conditions: source organism: Shigella boydii CDC 3083-94
[15] = target: HLA-B*40:13; assay: as above; conditions: source organism: Shigella boydii CDC 3083-94
[16] = target: HLA-A*29:02; assay: as above; conditions: source organism: Shigella boydii CDC 3083-94
[17] = target: HLA-A*26:01; assay: as above; conditions: source organism: Shigella boydii CDC 3083-94
[18] = target: HLA-B*83:01; assay: as above; conditions: source organism: Shigella boydii CDC 3083-94
[19] = target: HLA-C*06:02; assay: IEDB peptide-MHC binding, purified MHC/direct/fluorescence; filed as Kd, often an IC50 or EC50 that approximates it; ≥ and ≤ were set here for values at or beyond the usual limits of such assays; conditions: source organism: Shigella boydii CDC 3083-94

Kd [1]	Sequence	Kd [2]	Kd [3]	Kd [4]	Kd [5]	Kd [6]	Kd [7]	Kd [8]	Kd [9]	Kd [10]	Kd [11]	Kd [12]	Kd [13]	Kd [14]	Kd [15]	Kd [16]	Kd [17]	Kd [18]	Kd [19]
0.294 µM	NEVLHQEL	–	–	–	–	–	–	–	–	–	–	–	–	–	–	–	–	–	–
–	GMMRWCMPV	≤ 0.0001 µM	1.13 µM	≥ 20 µM	0.0052 µM	≥ 20 µM	0.0692 µM	16.9 µM	0.0936 µM	≥ 20 µM	0.0004 µM	≥ 20 µM	0.813 µM	0.0002 µM	0.201 µM	0.0515 µM	≥ 20 µM	≥ 5 µM	≥ 20 µM
